Target: T1, β1 integrins (UniProt P05556 21-798)
T1 construct: Endogenous protein of the epithelial membrane extract; also called beta 1 integrins
Experiment: gel overlay with HeLa membrane extract

T1 sequence (P05556 21-798): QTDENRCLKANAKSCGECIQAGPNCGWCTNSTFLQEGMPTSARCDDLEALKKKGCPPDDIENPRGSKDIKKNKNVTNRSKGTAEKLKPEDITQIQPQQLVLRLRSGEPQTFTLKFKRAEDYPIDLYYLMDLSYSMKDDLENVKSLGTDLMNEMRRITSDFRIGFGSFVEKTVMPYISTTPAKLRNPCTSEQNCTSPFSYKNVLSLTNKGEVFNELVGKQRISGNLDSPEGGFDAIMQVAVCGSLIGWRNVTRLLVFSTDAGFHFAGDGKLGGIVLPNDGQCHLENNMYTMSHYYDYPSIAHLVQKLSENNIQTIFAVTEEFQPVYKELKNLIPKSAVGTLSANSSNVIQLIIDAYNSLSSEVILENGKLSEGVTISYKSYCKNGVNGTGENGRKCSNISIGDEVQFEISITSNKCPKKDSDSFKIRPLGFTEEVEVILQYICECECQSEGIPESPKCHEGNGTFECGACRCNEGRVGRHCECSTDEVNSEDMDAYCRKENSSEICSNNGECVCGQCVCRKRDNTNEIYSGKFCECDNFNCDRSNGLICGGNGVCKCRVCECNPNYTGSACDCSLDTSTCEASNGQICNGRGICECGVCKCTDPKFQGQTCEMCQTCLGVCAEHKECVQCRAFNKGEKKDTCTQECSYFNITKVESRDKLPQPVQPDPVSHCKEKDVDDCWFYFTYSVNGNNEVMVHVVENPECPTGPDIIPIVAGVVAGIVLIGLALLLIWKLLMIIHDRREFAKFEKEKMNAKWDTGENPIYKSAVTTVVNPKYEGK

B1: His-T7Int fusion protein (other)
chain: ITEIKADKTTAVANGQDAITYTVKVMKGDKPVSNQEVTFTTTLGKLSNSTEKTDTNGYAKVTLTSTTPGKSLVSARVSDVAVDVKAPEVEFFTTLTIDDGNIEIVGTGVKGKLPTVWLQYGQVNLKASGGNGKYTWRSANPAIASVDASSGQVTLKEKGTTTISVISSDNQTATYTIATPNSLIVPNMSKRVTYNDAVNTCKNFGGKLPSSQNELENVFKAWGAANKYEYYKSSQTIISWVQQTAQDAKSGVASTYDLVKQNPLNNIKASESNAYATCVK
notes: domain: 280 C-terminal residues of intimin; Purified on an agarose-nickel column; also called His-T7Intimin; His-T7Int peptide
B1: no binding.

Source: patent publication US7208574 (UNIVERSITY OF BRITISH COLUMBIA, dated 2007)
